This is an account of results in US20240175869A1.

Experiment [1] has as its target ALK6. Description: solid-phase binding assay, MuSK construct immobilized, ALK6 at 100 nM (FIG. 8).
The target of experiment [2] is ALK6. The experiment in a line: solid-phase binding assay, MuSK construct immobilized, ALK6 titrated, pH 6.0; given as Half Max.
Experiment [3] deals with ALK6. The experiment in a line: solid-phase binding assay, pH 7.4 (FIG. 12).
The target in experiment [4] is ALK6. Description: solid-phase binding assay, MuSK construct immobilized, ALK6 titrated, pH 7.4; given as Half Max.
Experiment [5] addresses ALK6. The experiment in a line: solid-phase binding assay, pH 6.0 (FIG. 12).
Experiment [6] addresses ALK6. The experiment in a line: solid-phase binding assay, half max read from the curve (FIG. 8).
The target of experiment [7] is ALK6. The experiment in a line: solid-phase binding assay, saturation measured at 100 nM ALK6, pH 7.4.
Experiment [8] addresses ALK6. Description: solid-phase binding assay, saturation measured at 100 nM ALK6, pH 6.0.
Experiment [9] concerns the target ALK6. Description: solid-phase binding assay, MuSK immobilized, ALK6 at 100 nM (FIG. 7).
Experiment [10] has as its target ALK6. The experiment in a line: solid-phase binding assay, pH 7.4 (FIG. 13).
Experiment [11] deals with ALK6. Description: solid-phase binding assay, pH 6.0 (FIG. 13).
Experiment [12] concerns the target ALK6. The experiment in a line: solid-phase binding assay, several assays, ALK6 at 100 nM.
Experiment [13] deals with ALK6. Description: solid-phase binding assay, half max read from the curve (FIG. 10).
Experiment [14] addresses ALK6. The experiment in a line: solid-phase binding assay, isolated domain immobilized, ALK6 titrated (FIG. 9).
Experiment [15] deals with ALK6. The experiment in a line: solid-phase binding assay, half max read from the curve (FIG. 9).

isolated MuSK Ig2 domain, His-tagged (receptor), sequence (Q62838 121-205): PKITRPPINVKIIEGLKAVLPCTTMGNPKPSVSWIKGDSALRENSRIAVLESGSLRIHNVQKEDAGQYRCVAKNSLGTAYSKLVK
ALK6, sequence (O00238 14-126): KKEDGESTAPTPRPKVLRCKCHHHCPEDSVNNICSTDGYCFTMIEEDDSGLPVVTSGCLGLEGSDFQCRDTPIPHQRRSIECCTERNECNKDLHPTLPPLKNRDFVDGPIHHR
MuSK Ig1-Ig2 only construct, His-tagged (receptor), sequence (Q62838 22-205): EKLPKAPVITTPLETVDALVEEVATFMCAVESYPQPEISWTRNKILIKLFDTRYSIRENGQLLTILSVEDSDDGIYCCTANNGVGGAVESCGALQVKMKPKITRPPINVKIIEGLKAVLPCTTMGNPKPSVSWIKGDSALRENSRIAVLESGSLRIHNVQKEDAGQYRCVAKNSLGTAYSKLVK

For the substance “MuSK Ig1-Ig2 only construct, His-tagged (receptor)”, in the experiment with ALK6 [1], the absorbance at 100 nM ALK6 (absorbance (450 nm)) was determined as 3. In addition, the EC50 (in general, the midpoint of the concentration-response curve) is 15.9 nM in the experiment with ALK6 [2]; 25 nM in the experiment with ALK6 [3]; 18.2 nM in the experiment with ALK6 [4]; 6.25 nM with ALK6 [5]; 6.25 nM with ALK6 [6]. Also, the absorbance (absorbance (450 nm)) in the experiment with ALK6 [3] turned out to be 0.75; in the experiment with ALK6 [5], 3. For the same substance, the Saturation (%) is 21% with ALK6 [7] and 99% with ALK6 [8].
As for “MuSK ectodomain with Ig2 deletion (ΔIg2), His-tagged (receptor)”, the absorbance at 100 nM ALK6 (absorbance (450 nm)) in the experiment with ALK6 [9] stood at 0.15.
As to “MuSK ectodomain with an Ig1 deletion (ΔIg1), His-tagged (receptor)”, the EC50 came out at 6.5 nM with ALK6 [10]; 13.7 nM with ALK6 [2]; 6.5 nM with ALK6 [11]; 9.1 nM with ALK6 [4]; 12.5 nM in the experiment with ALK6 [13]. Further, the maximum absorbance (absorbance (450 nm)) with ALK6 [10] and with ALK6 [11] was 4 each time. Besides, the absorbance at 100 nM ALK6 (absorbance (450 nm)) with ALK6 [12] was greater than 3. The Saturation (%) in the experiment with ALK6 [7] amounted to 99%; with ALK6 [8], 100%.
Consider “isolated MuSK Ig2 domain, His-tagged (receptor)”, for which the figures for the EC50 with ALK6 [2] and with ALK6 [15] were 23.6 nM and 6.25 nM, respectively. Moreover, the absorbance (absorbance (450 nm)) with ALK6 [14] amounted to 1.8. This substance also yielded a Saturation (%) in the experiment with ALK6 [8] of 83%.
